# Experiment: yeast display, Sf9 membrane polyspecificity reagent, FACS + sequencing; frameworks hold sequencing errors
# Procedure, shortened: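 Genes from sorted yeast were amplified by colony PCR, read by MiSeq 2 × 250 sequencing and filtered on CDR length. These cells carried a synthetic nanobody library in Saccharomyces cerevisiae BJ5465 and were sorted by FACS into low and high (top ~1%) gates on anti-HA and streptavidin fluorescence. Polyreactivity is labelled according to the gate of origin.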
row,Sequence,polyreactivity (PSR sort gate)
1,QVQLVESGGGLVQAGGSLRLSCTASGSIFTRNTMGSYRQAPGKERELVAAISRRGGSTDYADSVKGRFTISRDNAKNTVYLQMNSLKPEDTAVYYCAADLGYEYDYWGQGTQVTVSS,high polyreactivity
2,QVQLVESGGGLVQAGGILRLSCAASGRTFNGNAMGWYRQAPGKERELVAAISGGSTSYADSVKGRFTISRDNAKNTVYLQMNSLKPEDTAVYYCATDPSEEYDYWGQGNQVTVSS,low polyreactivity
3,QVQLVESGGGLVQAGGSLRLSSAASGSIFPLYAMGWYRQAPGKERELVATINRRTGSTYADSVKGRFTISRDNAKNTVYLQMKSLKPEYTAVYYCNAADNYVLFYKTRIYNYWGQGTQVTVSS,high polyreactivity
4,QVQLVESGGALDQAGGSLRLTCAASGFIFYFYAKGWYRQAPGKERELVAAIDSAGSTNYADSVKGRFTISRDNAKNTVYLQMNSLKPEDTAVYYCAREPDSYVSWRSRYNYWGQGTQVTVSS,low polyreactivity
5,QFQLVESGRGLVQAGGSLRLSCAASGLIFRYYAMGWYRQAPGKERELVAAIRTGGSTYYADSVKGRFTISRDNAKNTVYLQMNSLKPEDTAVYYCAALLLSWYRTSYDFDYWGQGTQVTVSS,high polyreactivity
6,QFHLVESGGGLVQAGGSLRLTCAASGRTFAYYAMGWYRQAPGKEREMVAGITRNGGSTYYADSVKGRFTISRDNAKNTVYLQMNSLKPEDTAVYYCAAGFTTRRGEYNYWGKGTQVTVSS,high polyreactivity
7,QVQLVESGGGLVQAGGSLRLSCAASGFTFDVYAMGWYRQAPGKERELVATITWSGGSTTYADSVKGRFTISRDNAKNTVYLQMNSLKPEDTAVYYCAADRSVQVTFDYWGQGTQVTVSS,low polyreactivity
8,QVQLVESGGGLVQAGGSLRLSCAASGLIFVNNPMGWYRQAPGKERELVAAISWSTGGSTYYADSVKGRFTISRDNAKNSVYLQMNSLKPEDTAVYYCAAQYSYGEYWGYDYWGQGTQVTVSS,low polyreactivity
9,QEKLQESGSGLVQAGGSLRLSCAASGNIFQDWVMRWYRQAPGKERELVAAISPGAITYYADSVKGRFTISRDNAKNTVYLQTNSLKPEDTAVYYCAAYYIVEYLHGYWGQGTRVTVSS,low polyreactivity
10,QVQLVESGGGLVQAGGSLRLSCAASGSTFGRNAMGWYIQAPGKERELVAAISNRGGRTYYADSVKARFTISRDNAKNTVYFQMNSLKPEDTAVYYCAAEHRVQQGDYWGQGTQVTVSS,high polyreactivity
11,QVQIVESGGGLVQAGGSLRLSCAASGRIFDGYAMGWYRQAPGKERELVAAISLSDGSTYYADSVKGRFTISRDHAKNTVYLQMNILKPEDTAVYYCAARVQHYLATDDYWGQGTQVTVSS,low polyreactivity
12,QVQLVESGGGLVQAGGSLRLSCAASGIIFYLYAMGWYRQAPGKERELVAAITLSGSTTYYADSVKGRFTISRDNAKNTVYLQMNSLKPEDTAVYYCNADTPVRSDYWGQGTQVTVSS,low polyreactivity
13,QDQLVDSGGGLVQAGGSLRLSCAASVRTFDRYAMGWYRQAPGKVRELVAAISGRGGSTYYADSVKGRFTISRDNAKNTVYLQMNSLKPEDTAVYYCAARGSLWGAPSDYYYCGQGTQVTVSS,high polyreactivity
14,QVQLVESGGGLVQAGGSLRLSCAASGIIFDYNAMGWYRQAPGKERELVAAISGRSGRTYYADSVKGRFTISRDNAMNTVYLQMNSLKPEDTAVYYCAARWYAGGNYWGQGTQVTVSS,high polyreactivity
15,QVQLVESGGGLVQAGGSLRLSCAASGGTFAYKAMGWYRQAHGKERQLVAAITSSGGSTYYADSVKGRFTISRDNAKNTVYLQMNRLKPEDTAVYYCNRLRNRSLGGYYYWGQGTQVTVSS,high polyreactivity
16,QVQLVESGGGLVQAGGSLRLSCAASGSIFYRYAMGWYSQAPGKERELVAAINNGGGRTYADSVKGRCTISRDNAKNTVYLQMNSLKPEDTAVYYCAARYYRDYRWYTYAYDYWGQGTQVNVSS,high polyreactivity
17,QVQLVESGGCLVQAGGSLRLSCSSSGFIFFYNMGWYRQAPGKERDLVADISTGGSTNYADSVKGRFTISRDNAKNTVYLQMNSLKQEDTAVYYCAAVYYNVYQYEPWYDYWGQGTQVTVSS,low polyreactivity
18,QVQLVESGGGLVQAGGSLRLTCAASGRIFYGYTMGWYRKAPGKERELVAAITRRGGRTYYADSVKGRFTISRDNAKNTVYLQMNCLKPEDTAVYYCAATRSGEYDYWGQGTQVTVSS,high polyreactivity
19,QVQLVESGGGLVQAGGSLRLSCAASGRIFGVYAMGWYRQAPGKERELVAAISFSGGRTYYADSVKGRFTISRDNAKNTVYLQMNSLKAEDTAVYDCAALGPYDWLWAGDYWGQGTQVTVSS,low polyreactivity
20,QVQLEESGGRLLQAGGSLRLSCAASGCTFGSYDMGLYRQAPGKERELVARISSDGSTNYADSVKGRFSISRDNAKNTVYLQMNSLKPEDTAGYYCARDRKRQADDIGEFDYWGQGSQVTVSS,low polyreactivity
21,QVQLVESGGGLVQAGGSLRLSCAASGITFRHYAMGWYRQAPGKEREMVARIRGGGVSTYYADSVKGRFTISRDNAKNTVYLQMNSLKPEDTAVYYCNAVFESWWGDYDYWGQGTQVTVSS,high polyreactivity

row,Sequence,polyreactivity (PSR sort gate)
1,QVQLEESGGGLVQAGGSLRLSCAASGSIFRNYAIGWYRQAPGKEREFVAANTYSGGSTHYADSVKGRFTISRDNAKNTVYLQMNSLKPEDTAVYYCAADYYWRVHYGYWGQGTQVTVSS,high polyreactivity
2,QVQLVESGGGLVQAGGSLRLSCAASGSTFGENDMGWYRQAPGKERELVAAITWSGGSTYYADSVKGRFTISRDNAKNPVYLQLNSLNPEDTAVYYCAARSTYRHWYRTGSRFDYWGQGTQVTVSS,low polyreactivity
3,QVQLVESGGGLVQAGGSLRLICAASGRTFYWNAMGWYRQAPGKERELVAAISDGGGSTYYADSVKGRFTISRDNAKNTVYLQMNSLKPEDTAVYYCNTPDNQDKPYPGYDYWGQGTQVTVSS,low polyreactivity
4,QVQLVESGGGLVQAGGSLRLSCAASGSTFYWYAMGWYRQAPGKEREFVAAISLGSGSTYYADSVKGRFTISRDNAKNTVYLQMNSLKPEDTAVYYCARRYPYPAYEYGYWGQGTQVTVSS,high polyreactivity
5,QVQLVESGGGLVQAGGSLRLSCAASGSTFRTYAMVWYRQAPGKERELVAAIRSRGGSTYYADSVKGRFTISRDNAKNTVYLQMNSLKPEDTAVYYCNAVPRWSYVDEDSWGQGTQVTVSS,high polyreactivity
6,QVQLVESGGGLVQAGGSLRLSCAASGFIFWRYAMGWYRQAPGKDRELVAAISSTGRTYYADSVKGRFTISRDNAKNTVYLQMNSLKPEDTAVYYCNAAPVYLADPTRKYKADYWGQGTQVTVSS,low polyreactivity
7,QVQLVESGGGLVQAGGSLRLSCAASGRIFFYNVMGWYRQAPGKERELVASIRWSGSGTYYADSVKGRFTISRDDAKNTVYLQMNCLKPEETAVYYCAVLGRVGYGVYPVDYWGQGTQVTVSS,high polyreactivity
8,QVQLVESGGGLVQAGGSLRLSCAASGSTFYYYAMGWYRPAPGKERELVAAISSRGGSTFYADSVKGRFTISRDNAKNTVYLQMNSLKPEDTAVYYCNAYRYDRSQYYPYDYWGQGTQVTVSS,high polyreactivity
9,QVQLVESGGGLVQAGGSLRLSCAASGFIFQDNAMGWYRQAPGKERELVAAIRSTGSTNYADSVKGRFTISRDNAKNTVYLQMNSLKPEDTAVYYCNAGKYQSDTPSLVPTEYPAFYYWGQGTQVTVSS,low polyreactivity
10,QVQLVESGGGLFQAGGSLRLICAASGRIFDVNAMGWYRQAPGKERELVAAISWSGGITYYADSVKGRFTISRDNAKNTVYLQINSLKPEDTAVYYCAADKYQGYTFYQGYPGGGGYWGQGTQVTVSS,low polyreactivity
11,QVQLVESGGGLVQAGGSLRLSCAASGSISSVNVMGWYRQAPGKERELVAAISSGTSTHYADSVKGRFTISRDNAKNTVYLQMNSLKPVDTAVYYCAAYFYRQYLYFLYEYDYWGQGTQVTVSS,low polyreactivity
12,QVQLVESGGGLVQAGGSLRLSCAASGRIFYRYAMGWYRQAPGKEREFVAAISGTGGSTYYADSVKGRFTISRDNAKNTVYLQMNSLKPEDTAVDYCAASVVSRPTYYAYYYWGQGTQVTVSS,high polyreactivity
13,QVQLVESGGGLVQAGGSLRLSCAASGSIFRYYAMGWYRQAPGKERELVAAISRRGSSTYYADSVKGRFTISRDNAKNTVYLQMNSLNPEDTAVYYCAAGDFKQYDYWGQGTQVTVSS,high polyreactivity
14,QVQLVESGGGLVQAGGSLRLSCAASGFIFGSNAMGWYRQAPGKERELVAAISSRGGRTYYADSVKGRFTISRDNAKNTVYLQMNSLKPEDTAVYYCATVRYRALRYDYWGQGTQVTVSS,high polyreactivity
15,QVQLVESGGGLVQAGGSLRLSCAGSGITFVAYAMGWYRQAPGKDRELVAAISGGGGSTYYADSVKGRFTISRDNAKNTVYLQMNSLKPEDTAVYDCNAEPYTSSGGYRGYDFDYWGQGTQVTVSS,low polyreactivity
16,QVQLVESGGGLVQAGGSLRISCAASGGNFRYYTMGWYRQAPGKERELVAAITRGGRTYYADSVKGRFTISRDNAKNTVYIQMNSLKPEDTAVYYCAAVRPRSPVSYENDYWGQGTQVTVSS,high polyreactivity
17,QVHLVESGGGLVQAGGSLRLSSAASGRTFRGNAMGWYRQPPGKEREFDAVISGSGGSTYYADSVKGRFTISRDNAKNTVYLQMNSLKPEDTAVYYCGDKPSRWQRYDYWGQGTQVTVSS,high polyreactivity
18,QVQLVESGGGLVQAGGSLRLSCAASGITFYTYTMGWYRQAPGKERELVAAISRSSGRTYYADSVKGRFTISRDNAKNTVYLQMNSLKPEDTAVYYCAAYAVESYKYDYWGQGTQVTVSS,high polyreactivity
19,QVQLVESGGGLVQAGGSLRLSCAASGLIFRYNAMGWYRQAPGKERELVASITSDGSTNYADSVKGRFTISRDNAKNTVYLQMNSLKPEDTAVYYCAADGYTYCYYQLIPDYDYWGQGTQVTVSS,low polyreactivity
20,QVQLVESGGGLVQAGGSLRLSCAASGFTCTSNAMGWYRQAPGKERELVAAITFTGGRTYYADSVKGRFTISRDNAKNTVYLQMNSLKPEDTAVYYCNRVTAYYPTKFDYWGQGTQVTVSS,high polyreactivity

# Source: the nanobody polyreactivity screen of Harvey et al. (2022)
